From patent US20090263836A1

Biological target: iBoNT/A (protease inactive version of BoNT/A) (Clostridium botulinum)
Assay: SPR (BIAcore), […] ([…] to […])

Row | Substance | Kd
1 | SV2C529-566 (luminal part of SV2C) (peptide) | 5000 nM
2 | sFGFR3 (loop 2 and 3 of the extra cellular domain of FGFR3) (receptor) | 10 nM
